# How the values were obtained:
# Experiment in all cases: quartz crystal microbalance (QCM); purified N protein injected first onto the coated quartz crystal, then GST, then Grb2-GST; PBS pH 7.4, flow 60 μl/min; Tris-HCl pH 8.0 between injections; binding ratio = amplitude difference of Grb2-GST before and after binding over the amplitude of N protein
# [1] = biological target: PEDV-N (His-fused N protein of Alphacoronavirus PEDV) (PEDV)
# [2] = biological target: mPDCoV-N (P61A/P292A) (porcine deltacoronavirus (PDCoV))
# [3] = biological target: wPDCoV-N (His-fused PDCoV N protein) (porcine deltacoronavirus (PDCoV))
substance,measurement,setting,value
Grb2-GST (pGEX-Grb2) (from UniProt B6E241 1-217) (natural protein),binding ratio,[1],23.5%
same,binding ratio,[2],19.7%
same,binding ratio,[3],31.6%
